Measured values as given in patent publication US6797264B1, “Medicinal product and method for treatment of conditions affecting neural stem cells or progenitor cells” (Cellartis AB, priority 1998, dated 2004).

Columns and labels:
[1] = system: progenitor cells in the dentate gyrus; test: BrdU-positive cell proliferation in normal rats treated with GH; assay type: in vivo, Fisher rats; settings: normal animals treated one week with GH, compared with normal controls and with hypophysectomized animals substituted one week then unsubstituted 3 weeks
Procedure: (§1) The rats had free access to standard laboratory chow and water. Hormonal treatment started 7-10 days after hyophysectomy. All the hypophysectomized rats were given cortisol phosphate (400 μg/kg/day; Solu-Cortef, Upjohn, Puurs, Belgium) and L-thyroxine (10 μg/kg/day; Sigma, USA) diluted in saline as a daily subcutaneous injection (at 0800 h). Recombinant bovine GH (bGH) was diluted in 0.05 M phosphate buffer, pH 8.6, with 1.6% glycerol and 0.02% sodium azide. GH 1 mg/kg/day was given as one daily subcutaneous injection at 24 h intervals. The treatment continued for seven days. Thereafter the rats were sacrificed and the brains taken out and prepared for immunohistochemistry.
Ten hypophysectomized rats were substituted with only cortisole and L-thyroxine. Fifteen hypophysectomized rats were substituted with cortisole, L-thyroxine and GH. […] The thymidine analog BrdU is incorporated into the genetic material upon mitotic division whereafter it can be detected immunohistochemically in the resulting cells. […]
(§2) The number of BrdU positive cells in the dentate gyrus of the hippocampus were counted using unbiased counting techniques. […]
The total number of BrdU positive cells in the granule cell layer, the subgranular layer and the hilus and their corresponding sample volumes were determined in 7-9 coronal sections, […], that contained the dentate gyrus. […]

[2] = system: progenitor cells in the dentate gyrus; test: BrdU-positive (newborn) cells in the dentate gyrus of hypophysectomized rats; assay type: in vivo, Fisher rats
From the text: In this example, the density of BrdU-positive cells in the dentate gyrus of hypophysectomized (Hx) rate treated according to the invention with growth hormone (GH), cortisol (C), and L-thyroxine (T) was compared to the density of BrdU-positive cells in the dentate gyrus of hypophysectomized rats treated with cortisol (C), and L-thyroxine (T), and to the density of the same cells for an untreated unoperated control group.
Fisher rats (Harlan Sprague Dawley) which were inact or hypophysectomized at 50 days of age were mainained under standardized conditions of temperature (24-26° C.), humidity (50-60%) and with lights on between 0500 and 1900 h.
as §1
Ten hypophysectomized rats were substituted with only cortisole and L-thyroxine. […] The thymidine analog BrdU is incorporated into the genetic material upon mitotic division whereafter it can be detected immunohistochemically in the resulting cells. […]
as §2
For the immunofluorescence, sections were treated for DNA denaturation as described above, followed by incubation in TBS-TS for 30 min. Thereafter the sections were incubated with mouse-anti-Calbindin-D28k, 1:2000 (Sigma) for 16 h at 4° C. and was detected with a Texas red conjugated donkey anti-mouse IgG. BrdU was detected with a FITC conjugated rabbit anti-BrdU antibody. […]

B1: GH: Recombinant bovine growth hormone, given 1 mg/kg/day subcutaneously together with cortisol and L-thyroxine (protein, UniProt P01246 27-217, looked up)
Somatotropin: AFPAMSLSGLFANAVLRAQHLHQLAADTFKEFERTYIPEGQRYSIQNTQVAFCFSETIPAPTGKNEAQQKSDLELLRISLLLIQSWLGPLQFLSRVFTNSLVFGTSDRVYEKLKDLEEGILALMRELEDGTPRAGQILKQTYDKFDTNMRSDDALLKNYGLLSCFRKDLHKTETYLRVMKCRRFGEASCAF
proliferation [1]: increased | rate of proliferation of progenitor cells ([2]; hypophysectomized animals treated with cortisol and L-thyroxine, quantified after one week of substitution): significantly increased | granulae cell neurons ([2]; hypophysectomized animals, cortisone, thyroxine and GH vs only cortisone and thyroxine, four weeks after the last BrdU injection, FIG. 2): significantly more granulae cell neurons | number of newborn cells in the dentate gyrus ([2]; hypophysectomized rats, GH 1 mg/kg/day s.c. plus cortisone and thyroxine, after 7 days, compared to only cortisone and thyroxine, FIG. 1): significantly increased
